Data as given in paper doi:10.1101/2024.06.16.598887 (bioRxiv, 2024).
Where two headings read alike, the source gives them in different places.

Key:
[1] = target: T1, pig (Sus scrofa) skeletal muscle alpha-actin (pig (Sus scrofa), UniProt P68137 1-377); assay: ITC
[2] = target: T1, pig (Sus scrofa) skeletal muscle …; assay: ITC; remark: listed apart in the source

- Kd [1]: 0.8 nM
- dH [1]: -13.6 ± 0.1 kcal/mol
- stoichiometry N [1]: ~1
- Kd [2]: 1.6 nM
- dH [2]: -14.1 ± 0.1 kcal/mol
B1: Anopheles gambiae actin depolymerizing factor (natural protein)
chain: MASGVTVSDVCKTTYEEIKKDKKHRYVIFYIRDEKQIDVEVIGDRNAEYDSFLEDIQKGGPGECRYGLFDFEYMHQCQGTSESSKKQKLFLMSWCPDTAKVKKKMLYSSSFDALKKSLVGVQKYIQATDLSEASREAVEEKLRATDRQ
